Kobs of mGppNHp dissociation from Rap1 with 1 uM RIP3^RBD and binding efficiency (percent) data for two substances are collected here from paper PMC4865869.

Experiment [1] has as its target Rap1 pre-loaded with mGppNHp (GDI assay) (Dictyostelium) (UniProt P18613). The experiment can be described thus: guanine nucleotide dissociation inhibition (GDI) assay; Rap1 or RasG pre-loaded with fluorescent mGppNHp, excess unlabeled GppNHp, with or without 1 uM RIP3^RBD; kobs of fluorescence decay; without effector kobs Rap1 5.0 x 10^-5 s^-1, RasG 5.9 x 10^-5 s^-1.
Sequence of UniProt P18613 (P18613 whole entry): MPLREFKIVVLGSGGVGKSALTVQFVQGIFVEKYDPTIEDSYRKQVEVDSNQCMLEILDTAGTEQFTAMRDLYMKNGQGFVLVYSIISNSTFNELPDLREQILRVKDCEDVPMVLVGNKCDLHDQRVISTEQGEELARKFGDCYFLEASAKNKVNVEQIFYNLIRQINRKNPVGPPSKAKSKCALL

In experiment [2] the target is constitutively active RasC mutant (RasC^CA, G62L) (Dictyostelium) (UniProt P32253). Briefly: pull-down; GFP-FRB/Kin^TOR with active GST-fused GTPase (GppNHp-loaded or constitutively active mutant), 25 ug of each, 50 mM Tris-Cl, 150 mM NaCl, 5 mM MgCl2, 1 mM beta-mercaptoethanol, pH 7.5; GSH resin; washes with 500 mM NaCl; GFP and GST immunoblotting. (In general: Immunoblotting shows a protein as a band on a membrane.)

Experiment [3] concerns the target GST-fused RasC (Dictyostelium) (UniProt P32253). Described as above.

“RIP3^RBD (aa 511-838) (domain or fragment)”: the kobs of mGppNHp dissociation from Rap1 with 1 uM RIP3^RBD in experiment [1] stood at 1e-07 s⁻¹.

Regarding “GFP-fused TOR catalytic domain (FRB/Kin^TOR, aa 1820-2380) (from UniProt Q86C65 1820-2380) (domain or fragment)”, the binding efficiency (percent) in experiment [2] and in experiment [3] was 9% in each case.
